Values of other authors in patent US11407822B2, “Treatment of fibrodysplasia ossificans progressiva” (REGENERON PHARMACEUTICALS, INC., priority 2014, dated 2022).

Tests used:
[1] = system: Activin A mediated signaling through ACVR2A and/or ACVR2B; settings: as described for the antibody in US2015/0037339 or U.S. Pat. No. 8,309,082
[2] = target: T1, Activin A binding to ACVR2A or ACVR2B (Homo sapiens, UniProt P08476); settings: as described for the antibody in US2015/0037339 or U.S. Pat. No. 8,309,082
T1 sequence (P08476 311-426): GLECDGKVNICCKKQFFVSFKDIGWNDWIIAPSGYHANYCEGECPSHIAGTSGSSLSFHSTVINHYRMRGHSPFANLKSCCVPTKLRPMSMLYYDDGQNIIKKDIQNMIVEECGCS

B1: H4H10430P: Antibody against Activin A designated H4H10430P in US2015037339; heavy and light chain variable regions present SEQ ID NOs:9 and 13 (antibody, V domains shown)
VH: EVQLVESGGGLVQPGRSLRLSCKASGFAFDDFAMHWVRQAPGKGLEWVSGIVWNSGDIGYADSVKGRFTISRDNAKNSLYLQLNSLRTEDTALYFCVKDMVRGLMGFNYYGMDVWGQGTTVTVSS
VL: EIVLTQSPATLSLSPGERATLSCRASQTISTYLVWYRQRPGQAPSLLIYDASNRATDIPARFSGSGSGTDFTLTISSLEPEDFAVYYCQQRSNWPITFGQGTRLEIK
[1]
  inhibition of Activin A signal transduction through ACVR2A and/or ACVR2B: inhibits signal transduction through one or both of these receptors
[2]
  inhibition of Activin A binding to ACVR2A and/or ACVR2B: inhibits binding of Activin A to ACVRV2A and/or ACVR2B
